# Test results reported in US20250084142A1 (INTARCIA THERAPEUTICS, published 2025).
# Starred links: 1 amine or outer side, 2 acyl side, 3 side chain; linkers in the order of their positions; H or OH if unused. Positions of bridges follow the written chain, without caps; N, C: chain ends. Non-standard residues stand in square brackets, D forms with d. Groups on a side chain read outwards from the residue. No end group written: not given here. *: point of attachment. Phe(4-COOH) = N[C@@H](Cc1ccc(C(=O)O)cc1)C(=O)O; C20 diacid = O=C(O)CCCCCCCCCCCCCCCCCCC(=O)*; C19 diacid = O=C(O)CCCCCCCCCCCCCCCCCC(=O)*; C18 diacid = O=C(O)CCCCCCCCCCCCCCCCC(=O)*; γGlu = O=C(O)[C@H](CCC(=O)[*:2])N[*:1]
# T1: NPY5R
# T1 sequence (Q15761 1-445, species assumed, looked up): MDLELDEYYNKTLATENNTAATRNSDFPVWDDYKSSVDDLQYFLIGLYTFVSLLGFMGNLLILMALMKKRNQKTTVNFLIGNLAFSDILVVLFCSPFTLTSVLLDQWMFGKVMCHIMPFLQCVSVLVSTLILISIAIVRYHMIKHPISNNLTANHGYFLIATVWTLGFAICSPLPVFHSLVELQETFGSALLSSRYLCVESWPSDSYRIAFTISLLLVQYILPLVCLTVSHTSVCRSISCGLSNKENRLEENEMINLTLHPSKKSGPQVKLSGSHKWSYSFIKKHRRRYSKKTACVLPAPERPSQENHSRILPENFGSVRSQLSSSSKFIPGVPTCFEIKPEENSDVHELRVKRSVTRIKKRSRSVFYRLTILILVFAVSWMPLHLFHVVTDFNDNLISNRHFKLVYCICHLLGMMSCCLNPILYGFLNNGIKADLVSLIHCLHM
# B1: Compound A38 (peptide)
# peptide: PKPEK([γGlu-γGlu-C18 diacid])PGEDASPKEWNRYYKDLRHYLNWLTRQRF-NH2
# modifications: N-terminus assumed
# SMILES: CC(C)C[C@H](NC(=O)[C@H](CC(=O)O)NC(=O)[C@H](CCCCN)NC(=O)[C@H](Cc1ccc(O)cc1)NC(=O)[C@H](Cc1ccc(O)cc1)NC(=O)[C@H](CCCNC(=N)N)NC(=O)[C@H](CC(N)=O)NC(=O)[C@H](Cc1c[nH]c2ccccc12)NC(=O)[C@H](CCC(=O)O)NC(=O)[C@H](CCCCN)NC(=O)[C@@H]1CCCN1C(=O)[C@H](CO)NC(=O)[C@H](C)NC(=O)[C@H](CC(=O)O)NC(=O)[C@H](CCC(=O)O)NC(=O)CNC(=O)[C@@H]1CCCN1C(=O)[C@H](CCCCNC(=O)CC[C@H](NC(=O)CC[C@H](NC(=O)CCCCCCCCCCCCCCCCC(=O)O)C(=O)O)C(=O)O)NC(=O)[C@H](CCC(=O)O)NC(=O)[C@@H]1CCCN1C(=O)[C@H](CCCCN)NC(=O)[C@@H]1CCCN1)C(=O)N[C@@H](CCCNC(=N)N)C(=O)N[C@@H](Cc1c[nH]cn1)C(=O)N[C@@H](Cc1ccc(O)cc1)C(=O)N[C@@H](CC(C)C)C(=O)N[C@@H](CC(N)=O)C(=O)N[C@@H](Cc1c[nH]c2ccccc12)C(=O)N[C@@H](CC(C)C)C(=O)N[C@H](C(=O)N[C@@H](CCCNC(=N)N)C(=O)N[C@@H](CCC(N)=O)C(=O)N[C@@H](CCCNC(=N)N)C(=O)N[C@@H](Cc1ccccc1)C(N)=O)[C@@H](C)O
# B2: Compound A40 (peptide)
# peptide: PKPEKPGK([γGlu-γGlu-C19 diacid])DASPKEWDRYYKDLRHYLNWLTRQRF-NH2
# modifications: lactam 16-20; N-terminus assumed
# SMILES: CC(C)C[C@H](NC(=O)[C@H](CC(=O)O)NC(=O)[C@@H]1CCCCNC(=O)C[C@H](NC(=O)[C@H](Cc2c[nH]c3ccccc23)NC(=O)[C@H](CCC(=O)O)NC(=O)[C@H](CCCCN)NC(=O)[C@@H]2CCCN2C(=O)[C@H](CO)NC(=O)[C@H](C)NC(=O)[C@H](CC(=O)O)NC(=O)[C@H](CCCCNC(=O)CC[C@H](NC(=O)CC[C@H](NC(=O)CCCCCCCCCCCCCCCCCC(=O)O)C(=O)O)C(=O)O)NC(=O)CNC(=O)[C@@H]2CCCN2C(=O)[C@H](CCCCN)NC(=O)[C@H](CCC(=O)O)NC(=O)[C@@H]2CCCN2C(=O)[C@H](CCCCN)NC(=O)[C@@H]2CCCN2)C(=O)N[C@@H](CCCNC(=N)N)C(=O)N[C@@H](Cc2ccc(O)cc2)C(=O)N[C@@H](Cc2ccc(O)cc2)C(=O)N1)C(=O)N[C@@H](CCCNC(=N)N)C(=O)N[C@@H](Cc1c[nH]cn1)C(=O)N[C@@H](Cc1ccc(O)cc1)C(=O)N[C@@H](CC(C)C)C(=O)N[C@@H](CC(N)=O)C(=O)N[C@@H](Cc1c[nH]c2ccccc12)C(=O)N[C@@H](CC(C)C)C(=O)N[C@H](C(=O)N[C@@H](CCCNC(=N)N)C(=O)N[C@@H](CCC(N)=O)C(=O)N[C@@H](CCCNC(=N)N)C(=O)N[C@@H](Cc1ccccc1)C(N)=O)[C@@H](C)O
# Biological target: T1, NPY5R
# Assay: cell-based or functional assay
row,NPY5R pEC50,Binder
1,"8.4 -Log(EC50, M)",B1
2,"9 -Log(EC50, M)",B2
3,"6 -Log(EC50, M)",PKPEAPGK([γGlu-γGlu-C20 diacid])DASPEEWNRYYADLRHYLNWLTRQR[Phe(4-COOH)]-NH2 [Compound A59]
